This is an account of results in patent publication US20100292444A1 (published 2010).

The assay has as its target T1, Ser-PRLR (1-210) (UniProt P16471 25-234).
T1 construct: range 1-210; also called PRL receptor; prolactin receptor
T1 sequence: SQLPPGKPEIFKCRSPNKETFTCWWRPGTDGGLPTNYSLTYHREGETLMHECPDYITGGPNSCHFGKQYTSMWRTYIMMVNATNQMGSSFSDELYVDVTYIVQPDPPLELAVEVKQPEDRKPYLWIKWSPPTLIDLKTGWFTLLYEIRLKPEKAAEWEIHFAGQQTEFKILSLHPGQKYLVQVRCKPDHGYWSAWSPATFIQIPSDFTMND
Briefly: SPR (Biacore 3000): Ser-PRLR (1-210) amine-coupled to a CM5 chip, analogue injected at 500 nM. The method, then: Ser-PRLR (1-210) (25 μg/ml in 10 mM sodium acetate, pH 3.0), was injected into a Biacore 3000 instrument at a flow rate of 5 μl/min and coupled to a CM5 sensor chip by amine coupling chemistry. […] Data evaluation was performed in BiaEvaluation 4.1. Regeneration was accomplished with 4.5 M MgCl₂ between runs.
The PRL receptor binding affinity of G129R-PRL was compared to that of N56D,G129R-PRL (corresponding to the deamidated form of G129R-PRL), using the Biacore-assay. […] Thus, deamidation of […] markedly reduces the receptor binding affinity

B1: G129R-PRL (ligand)
chain: LPICPGGAARCQVTLRDLFDRAVVLSHYIHNLSSEMFSEFDKRYTHGRGFITKAINSCHTSSLATPEDKEQAQQMNQKDFLSLIVSILRSWNEPLYHLVTEVRGMQEAPEAILSKAVEIEEQTKRLLERMELIVSQVHPETKENEIYPVWSGLPSLQMADEESRLSAYYNLLHCLRRDSHKIDNYLKLLKCRIIHNNNC
notes: also called G129R-hPRL
With B1, the dissociation constant (Kd) amounted to 27 nM.

B2: N56D,G129R-PRL (ligand)
chain: LPICPGGAARCQVTLRDLFDRAVVLSHYIHNLSSEMFSEFDKRYTHGRGFITKAIDSCHTSSLATPEDKEQAQQMNQKDFLSLIVSILRSWNEPLYHLVTEVRGMQEAPEAILSKAVEIEEQTKRLLERMELIVSQVHPETKENEIYPVWSGLPSLQMADEESRLSAYYNLLHCLRRDSHKIDNYLKLLKCRIIHNNNC
notes: Recombinant mutant that mimics G129R-PRL deamidated at Asn-56; also called deamidated form of G129R-PRL
B2 displayed a Kd of 313 nM.
